Each block holds one binder with its values, some of them ahead of it.
Legend:
Ste50-mCherry = target: T1, Ste50-mCherry (budding yeast (S288C background), UniProt P25344 1-346); assay: two-dimensional photon counting histogram (2dPCH); live yeast cells with Ste11-GFP and Ste50-mCherry, cytosolic pool; 50 µs bins; two-component fit; cycling cells, also after α-factor or NaCl; details: partners not purified
T1 construct: Ste50, SAM domain protein, budding yeast; tagged at the chromosomal locus; source: expressed from its chromosomal locus in live yeast cells (S288C background); not shown: mCherry, C-terminal, kept
T1 sequence (looked up): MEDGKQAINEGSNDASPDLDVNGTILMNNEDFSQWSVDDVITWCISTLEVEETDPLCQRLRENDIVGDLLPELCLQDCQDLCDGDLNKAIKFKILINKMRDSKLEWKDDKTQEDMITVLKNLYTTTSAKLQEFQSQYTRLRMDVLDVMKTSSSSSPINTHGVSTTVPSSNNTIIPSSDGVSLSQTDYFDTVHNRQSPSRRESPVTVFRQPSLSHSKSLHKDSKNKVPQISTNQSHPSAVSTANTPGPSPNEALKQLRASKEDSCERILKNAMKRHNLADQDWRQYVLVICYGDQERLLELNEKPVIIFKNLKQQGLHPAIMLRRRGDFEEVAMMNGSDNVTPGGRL

[1] = target: the molecule itself; assay: photon counting histogram (1dPCH), constrained two-component fit; live yeast cells at high salt (NaCl); monomer brightness fixed, oligomer brightness and numbers freely varied; subunits estimated from a linear extrapolation of GFP brightness
[2] = target: the molecule itself; assay: photon counting histogram (1dPCH), constrained two-component fit; live yeast cells, cycling; monomer brightness fixed, oligomer brightness and numbers freely varied; subunits estimated from a linear extrapolation of GFP brightness
[3] = target: the molecule itself; assay: photon counting histogram (1dPCH), constrained two-component fit; live yeast cells treated with α-factor; monomer brightness fixed, oligomer brightness and numbers freely varied; subunits estimated from a linear extrapolation of GFP brightness

stoichiometry N (Ste50-mCherry): 2 Ste11 per Ste50
B1: Ste11-GFP (natural protein, budding yeast (S288C background), UniProt P23561 1-717, looked up)
chain: MEQTQTAEGTDLLIGDEKTNDLPFVQLFLEEIGCTQYLDSFIQCNLVTEEEIKYLDKDILIALGVNKIGDRLKILRKSKSFQRDKRIEQVNRLKNLMEKVSSLSTATLSMNSELIPEKHCVIFILNDGSAKKVNVNGCFNADSIKKRLIRRLPHELLATNSNGEVTKMVQDYDVFVLDYTKNVLHLLYDVELVTICHANDRVEKNRLIFVSKDQTPSDKAISTSKKLYLRTLSALSQVGPSSSNLLAQNKGISHNNAEGKLRIDNTEKDRIRQIFNQRPPSEFISTNLAGYFPHTDMKRLQKTMRESFRHSARLSIAQRRPLSAESNNIGDILLKHSNAVDMALLQGLDQTRLSSKLDTTKIPKLAHKRPEDNDAISNQLELLSVESGEEEDHDFFGEDSDIVSLPTKIATPKNWLKGACIGSGSFGSVYLGMNAHTGELMAVKQVEIKNNNIGVPTDNNKQANSDENNEQEEQQEKIEDVGAVSHPKTNQNIHRKMVDALQHEMNLLKELHHENIVTYYGASQEGGNLNIFLEYVPGGSVSSMLNNYGPFEESLITNFTRQILIGVAYLHKKNIIHRDIKGANILIDIKGCVKITDFGISKKLSPLNKKQNKRASLQGSVFWMSPEVVKQTATTAKADIWSTGCVVIEMFTGKHPFPDFSQMQAIFKIGTNTTPEIPSWATSEGKNFLRKAFELDYQYRPSALELLQHPWLDAHII
notes: Ste11, MAP kinase kinase kinase with a SAM domain, budding yeast; tagged at the chromosomal locus; source: expressed from its chromosomal locus in live yeast cells (S288C background); not shown: GFP, C-terminal, kept

B2: Ste50-GFP (natural protein, budding yeast (S288C background), UniProt P25344 1-346, looked up)
chain: T1 sequence (looked up)
notes: Ste50, SAM domain protein, budding yeast; tagged at the chromosomal locus; source: expressed from its chromosomal locus in live yeast cells (S288C background); not shown: GFP, C-terminal, kept
stoichiometry N [1]: 3 to 4
stoichiometry N [2]: 5 to 6
stoichiometry N [3]: ~4

From article PMC2291563, “SAM Domain-Based Protein Oligomerization Observed by Live-Cell Fluorescence Fluctuation Spectroscopy” (PLoS ONE, 2008)
